Earlier results, collected in patent US9265777B2, “Antiparasitic agent for fish and method of controlling proliferation of fish parasites” (NIPPON SUISAN KAISHA, LTD., priority 2009, dated 2016).

Tested on: White spot disease
Conditions: 40 mg per 1 kg of fish body weight orally per day, 28-day experimental period

B1: lactoferrin: marketed as an additive for fisheries (protein, UniProt P24627 20-708, looked up)
Lactotransferrin: APRKNVRWCTISQPEWFKCRRWQWRMKKLGAPSITCVRRAFALECIRAIAEKKADAVTLDGGMVFEAGRDPYKLRPVAAEIYGTKESPQTHYYAVAVVKKGSNFQLDQLQGRKSCHTGLGRSAGWIIPMGILRPYLSWTESLEPLQGAVAKFFSASCVPCIDRQAYPNLCQLCKGEGENQCACSSREPYFGYSGAFKCLQDGAGDVAFVKETTVFENLPEKADRDQYELLCLNNSRAPVDAFKECHLAQVPSHAVVARSVDGKEDLIWKLLSKAQEKFGKNKSRSFQLFGSPPGQRDLLFKDSALGFLRIPSKVDSALYLGSRYLTTLKNLRETAEEVKARYTRVVWCAVGPEEQKKCQQWSQQSGQNVTCATASTTDDCIVLVLKGEADALNLDGGYIYTAGKCGLVPVLAENRKSSKHSSLDCVLRPTEGYLAVAVVKKANEGLTWNSLKDKKSCHTAVDRTAGWNIPMGLIVNQTGSCAFDEFFSQSCAPGADPKSRLCALCAGDDQGLDKCVPNSKEKYYGYTGAFRCLAEDVGDVAFVKNDTVWENTNGESTADWAKNLNREDFRLLCLDGTRKPVTEAQSCHLAVAPNHAVVSRSDRAAHVKQVLLHQQALFGKNGKNCPDKFCLFKSETKNLLFNDNTECLAKLGGRPTYEEYLGTEYVTAIANLKKCSTSPLLEACAFLTR
infection during experimental period: no infection was observed
